Source: patent publication EP4813396A2 (Amphivena Therapeutics, Inc., dated 2026)
Several values for one entry are separate records, joined by “and”; a condition that tells them apart may be missing. Identical values can stand only once.

B1: CD33/CD3 tandem diabody 19 (bispecific antibody)
chain: DIQMTQSPSSLSASVGDRVTITCRSSTGAVTTSNYANWVQQKPGKAPKALIGGTNKRAPGVPSRFSGSLIGDKATLTISSLQPEDFATYYCALWYSNLWVFGQGTKVEIKGGSGGSQVQLVQSGAEVKKPGASVKVSCKASGYTFTSYYMHWVRQAPGQGLEWMGIINPSGGSTSYAQKFQGRVTMTRDTSTSTVYMELSSLRSEDTAVYYCARDVVPAAIDYYGMDVWGQGTTVTVSSGGSGQSVLTQPPSASGTPGQRVTISCSGSSSNIGSNTVNWYQQLPGTAPKLLIYSDNQRPSGVPDRFSGSKSGSSASLAISGLQSDDEADYYCATWDDSLNGAVFGGGTKLTVLGGSGGSEVQLVESGGGLVQPGGSLRLSCAASGFTFSTYAMNWVRQAPGKGLEWVGRIRSKYNNYATYYADSVKDRFTISRDDSKNSLYLQMNSLKTEDTAVYYCARHGNFGNSYVSYFAYWGQGTLVTVSSAAAGSHHHHHH
notes: Non-covalent homodimer; domain order 1; also called TandAb 19
B2: CD33/CD3 tandem diabody 14 (bispecific antibody)
chain: DIQMTQSPSSLSASVGDRVTITCRSSTGAVTTSNYANWVQQKPGKAPKALIGGTNKRAPGVPSRFSGSLIGDKATLTISSLQPEDFATYYCALWYSNLWVFGQGTKVEIKGGSGGSQVQLVQSGAEVKKPGASVKVSCKASGYTFTSYDINWVRQAPGQGLEWMGWMNPNSGNTGFAQKFQGRVTMTRDTSTSTVYMELSSLRSEDTAVYYCARDRANTDFSYGMDVWGQGTLVTVSSGGSGQSVLTQPPSASGTPGQRVTISCSGSRSNIGSNTVNWYQQLPGTAPKLLIYGNNQRPSGVPDRFSGSKSGSSASLAISGLQSEDEADYYCATWDDSLIGWVFGGGTKLTVLGGSGGSEVQLVESGGGLVQPGGSLRLSCAASGFTFSTYAMNWVRQAPGKGLEWVGRIRSKYNNYATYYADSVKDRFTISRDDSKNSLYLQMNSLKTEDTAVYYCARHGNFGNSYVSYFAYWGQGTLVTVSSAAAGSHHHHHH
notes: Non-covalent homodimer; domain order 1; also called TandAb 14
B3: CD33/CD3 tandem diabody 07 (bispecific antibody)
chain: DIQMTQSPSSLSASVGDRVTITCRSSTGAVTTSNYANWVQQKPGKAPKALIGGTNKRAPGVPSRFSGSLIGDKATLTISSLQPEDFATYYCALWYSNLWVFGQGTKVEIKGGSGGSQVQLQESGGGVVQPGRSLRLSCAASGFSFSNYGIHWVRQAPGKGLEWVALISYDGNKKFYADSVKGRFAISRDTSKNTVDLQMTSLRPEDTAVYYCAKDRLESAAFDYWGQGTLVTVSSGGSGGSSYELTQPPSVSVAPGQTAMITCGGNNIGSTTVHWYQQKPGQAPVLVVYDDNERPSGIPERFSGSNSGSTATLTINRVEAGDEADYYCQVWDSGSDHVVFGGGTKLTVLGGSGGSEVQLVESGGGLVQPGGSLRLSCAASGFTFSTYAMNWVRQAPGKGLEWVGRIRSKYNNYATYYADSVKDRFTISRDDSKNSLYLQMNSLKTEDTAVYYCARHGNFGNSYVSYFAYWGQGTLVTVSSAAAGSHHHHHH
notes: Non-covalent homodimer; domain order 1; also called TandAb 07; tandem diabody 7
B4: CD33/CD3 tandem diabody 13 (bispecific antibody)
chain: DIQMTQSPSSLSASVGDRVTITCRSSTGAVTTSNYANWVQQKPGKAPKGLIGGTNKRAPGVPSRFSGSLIGTDFTLTISSLQPEDFATYYCALWYSNLWVFGQGTKVEIKGGSGGSQVQLVQSGAEVKKPGASVKVSCKASGYTFTSYDINWVRQAPGQGLEWMGWMNPNSGNTGFAQKFQGRVTMTRDTSTSTVYMELSSLRSEDTAVYYCARDRAVTDYYYGMDVWGQGTLVTVSSGGSGQSVLTQPPSASGTPGQRVTISCSGSRSNIGSNTVNWYQQLPGTAPKLLIYGNNQRPSGVPDRFSGSKSGTSASLAISGLQSEDEADYYCATWDDSLIGWVFGGGTKLTVLGGSGGSEVQLVESGGGLVQPGGSLRLSCAASGFTFSTYAMNWVRQAPGKGLEWVGRIRSKYNNYATYYADSVKDRFTISRDDSKNSLYLQMNSLKTEDTAVYYCARHGNFGNSYVSWFAYWGQGTLVTVSS
notes: Non-covalent homodimer; domain order 1; also called TandAb 13
B5: CD33/CD3 tandem diabody 17 (bispecific antibody)
chain: DIQMTQSPSSLSASVGDRVTITCRSSTGAVTTSNYANWVQQKPGKAPKALIGGTNKRAPGVPSRFSGSLIGDKATLTISSLQPEDFATYYCALWYSNLWVFGQGTKVEIKGGSGGSQVQLVQSGAEVKKPGESLKISCKGSGYSFTSYWIGWVRQMPGKGLEWMGIIYPGDSDTRYSPSFQGQVTISADKSISTAYLQWSSLKASDTAMYYCARHKRGSDAFDIWGQGTTVTVSSGGSGQSVLTQPPSVSGAPGQRVTISCTGSSSNIGAGYDVHWYQQLPGTAPKLLIYGNSNRPSGVPDRFSGSKSGTSASLAITGLQAEDEADYYCQSYDSSLSDVVFGGGTKLTVLGGSGGSEVQLVESGGGLVQPGGSLRLSCAASGFTFSTYAMNWVRQAPGKGLEWVGRIRSKYNNYATYYADSVKDRFTISRDDSKNSLYLQMNSLKTEDTAVYYCARHGNFGNSYVSYFAYWGQGTLVTVSSAAAGSHHHHHH
notes: Non-covalent homodimer; domain order 1; also called TandAb 17

These binders were tested against T1, human CD33 on cells (human, UniProt P20138 18-364) (assay: cell-based or functional assay).
T1 sequence (P20138 18-364): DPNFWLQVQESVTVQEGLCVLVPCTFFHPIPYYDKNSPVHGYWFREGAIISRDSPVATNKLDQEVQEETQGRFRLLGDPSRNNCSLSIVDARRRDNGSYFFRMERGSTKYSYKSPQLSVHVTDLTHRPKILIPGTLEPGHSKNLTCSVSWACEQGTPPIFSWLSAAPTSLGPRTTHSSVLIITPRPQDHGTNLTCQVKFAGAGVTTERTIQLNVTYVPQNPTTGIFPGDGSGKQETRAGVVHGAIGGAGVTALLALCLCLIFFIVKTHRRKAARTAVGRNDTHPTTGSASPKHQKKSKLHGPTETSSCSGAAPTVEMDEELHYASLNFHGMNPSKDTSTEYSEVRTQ

| Binder | IC50, lysis of KG-1 cells with human T cells (E:T 5:1, 24 h) [nM] |
| --- | --- |
| B1 | ~0.005 |

Target: T1, human CD33 on cells
Experiment: cell-based or functional assay
Remark: another data set of the same source

| Binder | EC50 on HL-60 [pM] (cytotoxicity) |
| --- | --- |
| B2 | 1.6 |
| B3 | 17.8 |
| B4 | 1.1 |
| B5 | 18.4 |
| B1 | 5.7 |

Target: T1, human CD33 on cells
Experiment: cell-based or functional assay
Remark: another data set of the same source

| Binder | EC50 [pM (pg/mL)] on human CD33+ target cell lines: HL-60 (cytotoxicity, E:T 5:1, 20-24 h) | EC50 [pM (pg/mL)] on human CD33+ target cell lines: KG-1 (cytotoxicity, E:T 5:1, 20-24 h) | EC50 [pM (pg/mL)] on human CD33+ target cell lines: U-937 (cytotoxicity, E:T 5:1, 20-24 h) | EC50 [pM (pg/mL)] on human CD33+ target cell lines: mean of HL-60, U-937, KG-1 |
| --- | --- | --- | --- | --- |
| B2 | 1.6 pM and 168 pg/mL | 2.6 pM and 273 pg/mL | 3.6 pM and 378 pg/mL | 2.6 pM and 273 pg/mL |

The binders below were run against T2, human CD3 on T cells (human, UniProt P07766 23-207) (assay: cell-based or functional assay).
T2 sequence (P07766 23-207): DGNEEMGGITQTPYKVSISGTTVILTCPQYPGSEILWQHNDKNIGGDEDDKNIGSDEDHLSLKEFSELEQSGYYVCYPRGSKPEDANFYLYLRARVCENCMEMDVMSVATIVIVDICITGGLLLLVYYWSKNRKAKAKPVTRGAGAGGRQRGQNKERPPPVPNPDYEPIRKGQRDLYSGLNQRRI

| Binder | CD25 Induction EC50 (pM) | CD69 Induction EC50 (pM) | T cell Proliferation in PBMC EC50 (pM) |
| --- | --- | --- | --- |
| B2 | 10 | 7 | 6 |
| B3 | 134 | 65 | 50 |
| B4 | 30 | 22 | 23 |
| B5 | 30 | 114 | 30 |
| B1 | 9 | 5 | 6 |

Each binder was assayed against T1, human CD33 on cells (assay: flow cytometry, HL-60 cells).

| Binder | Kd [nM] |
| --- | --- |
| B2 | 0.3 |
| B3 | 13.7 |
| B4 | 0.2 |
| B5 | 5 |
| B1 | 2.8 |

What follows are binders tested against T1, human CD33 on cells (assay: flow cytometry, titration on KG-1 cells).

| Binder | Kd [nM] |
| --- | --- |
| B2 | 0.3 |
| B3 | 47.9 |
| B4 | 0.3 |
| B5 | 52.5 |
| B1 | 3.6 |

The binders below were run against T1, human CD33 on cells (assay: flow cytometry, titration on HL-60 cells).

| Binder | Kd [nM] |
| --- | --- |
| B2 | 0.3 |
| B3 | 13.7 |
| B4 | 0.2 |
| B5 | 5 |
| B1 | 2.8 |

These binders were tested against T1, human CD33 on cells (assay: flow cytometry, titration on U-937 cells).

| Binder | Kd [nM] |
| --- | --- |
| B2 | 1.2 |
| B3 | 47.1 |
| B4 | 0.5 |
| B5 | 24.4 |
| B1 | 5.4 |

Each binder was assayed against T2, human CD3 on T cells (assay: flow cytometry, human T-cells (as headed in Table 10)).

| Binder | Kd [nM] |
| --- | --- |
| B2 | 2.1 |
| B3 | 49.7 |
| B4 | 55.7 |
| B5 | 3.3 |
| B1 | 6.3 |

What follows are binders tested against T2, human CD3 on T cells (assay: flow cytometry, titration on human CD3+ T cells (Jurkat per paragraph 124/paragraph 125)).

| Binder | Kd [nM] |
| --- | --- |
| B2 | 2.1 |
| B3 | 49.7 |
| B4 | 55.7 |
| B5 | 3.3 |
| B1 | 6.3 |

The binders below were run against cynomolgus CD33 on CHO cells (cynomolgus monkey) (assay: flow cytometry; KD on CHO-cynomolgus CD33 cells divided by KD on CHO-human CD33 cells).

| Binder | KD ratio cynoCD33/ huCD33 |
| --- | --- |
| B2 | 1 |
| B3 | 45.8 |
| B4 | 1.6 |
| B5 | 1.9 |
| B1 | 37.3 |
